Results from patent publication US20090291890A1 (published 2009).
“And” between values parts separate entries of the source, which are not always exact repeats. Equal values may be shown once.

Assays:
[1] = target: M298Q/Q366N/H373F-FVIIa (human)
[2] = target: M298Q/H373F-FVIIa (human)
[3] = target: S119N/L121S/A175S-FVIIa (human)
[4] = target: S222A/Q286R/M298Q/H373F-FVIIa (human)
[5] = target: A122N/G124S/A175S/Q286R/M298Q-FVIIa (human)
[6] = target: T128N/P129A/A175S/Q366V-FVIIa (human)
[7] = target: wild-type FVIIa (human)
[8] = target: T128N/P129A/S222A/H257A/Q286R/M298Q-FVIIa (human)
[9] = target: T128N/P129A/T239V/Q286R/M298Q-FVIIa (human)
[10] = target: T128N/P129A/S222A-FVIIa (human)
[11] = target: Gla swap FIX/S52A/S60A/Q286R/M298Q-FVIIa (human)
[12] = target: Gla swap FIX/S222A/Q286R/M298Q-FVIIa (human)
[13] = target: GlaSwapFIX/S222A/T239I/Q286R-FVIIa (human)
[14] = target: T128N/P129A/T239V/Q286R/M298Q/H373F-FVIIa (human)
[15] = target: T128N/P129A/A175S/S222A/H257A/Q286R/M298Q-FVIIa (human)
[16] = target: A122N/G124S/A175S/Q286R-FVIIa (human)
[17] = target: S222A/H257A/Q286R/M298Q-FVIIa (human)
[18] = target: Gla swap FIX/T128N/P129A/A175S/S222A/Q286R-FVIIa (human)
[19] = target: T239I/M298Q/H373F-FVIIa (human)
[20] = target: T128N/P129A/S222A/T239V/H257A/Q286R/M298Q-FVIIa (human)
[21] = target: S52A/S60A/V158D/E296V/M298Q-FVIIa (human)
[22] = target: {Gla swap FIX/K43I}/T128N/P129A/Q286R/M298Q/Q366N-FVIIa (human)
[23] = target: S222A/T239I-FVIIa (human)
[24] = target: Gla swap FIX/S222A/T239V/Q286R-FVIIa (human)
[25] = target: V158D/T239V/E296V/M298Q-FVIIa (human)
[26] = target: A122N/G124S/A175S/Q286R/M298Q/H373F-FVIIa (human)
[27] = target: Gla swap FIX-FVIIa (human)
[28] = target: Q286R/H373F-FVIIa (human)
[29] = target: T239V/Q286R/H373F-FVIIa (human)
[30] = target: Gla swap FIX/T239V/Q286R/M298Q-FVIIa (human)
[31] = target: T239I/Q286R/M298Q/H373F-FVIIa (human)
[32] = target: S222A/T239I/H257A/Q286R/M298Q-FVIIa (human)
[33] = target: wild-type FVIIa (human); remark: listed apart in the source

Sequence of antithrombin III (P01008 33-464): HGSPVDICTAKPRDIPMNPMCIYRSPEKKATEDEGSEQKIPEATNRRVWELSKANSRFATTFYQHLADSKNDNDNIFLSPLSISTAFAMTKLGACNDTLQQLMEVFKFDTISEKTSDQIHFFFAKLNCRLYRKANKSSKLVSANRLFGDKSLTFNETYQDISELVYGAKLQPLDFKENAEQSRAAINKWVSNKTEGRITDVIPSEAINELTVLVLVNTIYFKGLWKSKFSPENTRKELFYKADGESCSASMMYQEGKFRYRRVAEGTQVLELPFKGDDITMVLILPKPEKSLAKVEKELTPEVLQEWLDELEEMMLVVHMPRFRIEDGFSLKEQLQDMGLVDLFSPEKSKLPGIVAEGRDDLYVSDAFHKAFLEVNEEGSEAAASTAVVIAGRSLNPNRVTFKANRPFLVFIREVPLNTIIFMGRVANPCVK

Question: How did the K0.5 [1] turn out when antithrombin III was run?
Answer: 90.8 nM

Question: What about the K0.5 [2] of the same substance?
Answer: 81.7 nM

Question: What about the K0.5 [3] of the same substance?
Answer: 1640 nM

Question: What about the K0.5 [4] of the same substance?
Answer: 163 nM

Question: What about the K0.5 [5] of the same substance?
Answer: 1950 nM

Question: What about the K0.5 [6] of the same substance?
Answer: 333 nM

Question: What about the K0.5 [7] of the same substance?
Answer: 394 nM and 503 nM

Question: And the K0.5 [8]?
Answer: 653 nM and 328 nM

Question: What about the K0.5 [9] of the same substance?
Answer: 266 nM

Question: And the K0.5 [10]?
Answer: 401 nM

Question: And the K0.5 [11]?
Answer: 254 nM

Question: What about the K0.5 [12] of the same substance?
Answer: 266 nM

Question: And the K0.5 [13]?
Answer: 3.31 µM

Question: And the K0.5 [14]?
Answer: 121 nM

Question: And the K0.5 [15]?
Answer: 3.21 µM

Question: What about the K0.5 [16] of the same substance?
Answer: 6.92 µM

Question: And the K0.5 [17]?
Answer: 314 nM

Question: What about the K0.5 [18] of the same substance?
Answer: 6.49 µM

Question: What about the K0.5 [19] of the same substance?
Answer: 179 nM

Question: What about the K0.5 [20] of the same substance?
Answer: 326 nM

Question: What about the K0.5 [21] of the same substance?
Answer: 78.8 nM

Question: And the K0.5 [22]?
Answer: 319 nM

Question: And the K0.5 [23]?
Answer: 1150 nM

Question: And the K0.5 [24]?
Answer: 2440 nM

Question: And the K0.5 [25]?
Answer: 67.7 nM and 67.1 nM

Question: What about the K0.5 [26] of the same substance?
Answer: 1000 nM

Question: What about the K0.5 [27] of the same substance?
Answer: 299 nM

Question: And the K0.5 [28]?
Answer: 621 nM

Question: And the K0.5 [29]?
Answer: 631 nM

Question: What about the K0.5 [30] of the same substance?
Answer: 484 nM and 314 nM

Question: And the K0.5 [31]?
Answer: 370 nM

Question: What about the K0.5 [32] of the same substance?
Answer: 1220 nM

Question: And the K0.5, TF-dependent, FVIIa from 293-F cells [33]?
Answer: 72.3 nM

Question: And the K0.5, TF-dependent, FVIIa from BHK-21 cells [33]?
Answer: 56 nM

Question: What about the K0.5 mut/K0.5 wt, TF-dependent, 293-F cells [33] of the same substance?
Answer: 1

Question: What about the K0.5 mut/K0.5 wt, TF-dependent, BHK-21 cells [33] of the same substance?
Answer: 1
